Results on two molecules are retold here after article PMC10602907 (2023).

Where two headings read alike, the source gives them in different places.

Common to all, as to assay: MST
For assay [1], the target named is T1, FgSreA, 6xHis-tagged recombinant protein (Fusarium graminearum PH-1).
In assay [2] the target is T1, FgSreA, 6xHis-tagged recombinant protein. This is another data set of the same source.
Assay [3] addresses FgHapX, 6xHis-tagged recombinant protein (Fusarium graminearum PH-1).

B1: FgSwc6, 6xHis-tagged recombinant protein (natural protein)
chain: MNNFGVIELASAKTTSAPGWAYVPDNTISRPTAPTNRKRARNVPGLTYSDLTARQDNKIRKEVEALDKDGGKDNTIPLPVKSGRVQGKHTPNVRKILQSQKTFGNHLDDFLAMQALVESNPAISRASGANSKRPSVSRKDTPSSSKPPPDEDTTMTDANLQPLLPEPSRSPPASHPGDYNPLLVSRVPDMPSDEELRRLLAHPPLNYGEATGTRDTKYPARSFCEVCGYWGRVRCMKCGTRVCALDCLEAHKEECVTRYGP
By Kd is commonly meant the constant that tells how readily two partners part at equilibrium. On to B1, for which the results for the Kd in assay [1] and in assay [2] were 398 µM and 3.04 µM, respectively.

B2: FgUbp8, 6xHis-tagged recombinant protein (natural protein)
chain: MSARPTTPASPKNVRVKSPVPGLPMFGCEHIQLLLSKNQEVMNSSITHYKLILRGIFDATPIVPQTSTLDGRPVTSLTSNYLCLQCPSTVTEEERLRHGTKKQHRFYVDSRSGCLYCQICDDYIWDPTLEELRVRKIGTGSFSGRKRKHDELFTGSFKDDPRFISSNTNTASCRANGLRGIYNAGATCYQNVVLQSFLHNPLLRNFYLSDGHQSSDCQVSHCLSCAMDDMFQDFYALETTNGYTAANILSGFWISEKKAFENLVTTKEQDAHEFFQFLAEELHERNGDGKKPEIGSEHSCNCIMHQTFYGKMQTTTTCQNCSGQSNSIQSFLDLSLGLDNVVQKKSKRTGQKKPTVSLQDCLDEEYIKYDKCEYRCNNCNGTQQAKRHTSIKRLPNVLSIQLKRFEYKHGRHDRAASKVDNEVKFPLQLNMMPYTNRIRNHDSRESLELERSCTYDLLSVVVHVGELDTGHYTSYCRVGDQWFKFNDHKVELASLSDVLGAQAYLLFYIIRSLA
For the molecule B2, the Kd in assay [3] was 1.9 µM.
